Laboratory results taken from patent US20090118184A1 (UNIVERSITY OF ROCHESTER, published 2009).

T1: factor VIIIa A1/A3C1C2 dimer, wild type (human, UniProt P00451 20-391; P00451 1709-2351)
T1 sequence 1: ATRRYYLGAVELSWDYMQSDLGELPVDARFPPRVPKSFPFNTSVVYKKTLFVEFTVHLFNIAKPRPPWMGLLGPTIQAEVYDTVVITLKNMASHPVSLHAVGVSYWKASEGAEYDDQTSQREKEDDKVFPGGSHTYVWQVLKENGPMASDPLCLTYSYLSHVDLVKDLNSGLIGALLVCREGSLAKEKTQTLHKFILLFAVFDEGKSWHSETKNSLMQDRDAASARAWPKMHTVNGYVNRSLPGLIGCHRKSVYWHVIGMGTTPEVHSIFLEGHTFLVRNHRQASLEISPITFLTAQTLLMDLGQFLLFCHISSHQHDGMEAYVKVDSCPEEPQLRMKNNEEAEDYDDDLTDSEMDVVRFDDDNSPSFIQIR
T1 sequence 2: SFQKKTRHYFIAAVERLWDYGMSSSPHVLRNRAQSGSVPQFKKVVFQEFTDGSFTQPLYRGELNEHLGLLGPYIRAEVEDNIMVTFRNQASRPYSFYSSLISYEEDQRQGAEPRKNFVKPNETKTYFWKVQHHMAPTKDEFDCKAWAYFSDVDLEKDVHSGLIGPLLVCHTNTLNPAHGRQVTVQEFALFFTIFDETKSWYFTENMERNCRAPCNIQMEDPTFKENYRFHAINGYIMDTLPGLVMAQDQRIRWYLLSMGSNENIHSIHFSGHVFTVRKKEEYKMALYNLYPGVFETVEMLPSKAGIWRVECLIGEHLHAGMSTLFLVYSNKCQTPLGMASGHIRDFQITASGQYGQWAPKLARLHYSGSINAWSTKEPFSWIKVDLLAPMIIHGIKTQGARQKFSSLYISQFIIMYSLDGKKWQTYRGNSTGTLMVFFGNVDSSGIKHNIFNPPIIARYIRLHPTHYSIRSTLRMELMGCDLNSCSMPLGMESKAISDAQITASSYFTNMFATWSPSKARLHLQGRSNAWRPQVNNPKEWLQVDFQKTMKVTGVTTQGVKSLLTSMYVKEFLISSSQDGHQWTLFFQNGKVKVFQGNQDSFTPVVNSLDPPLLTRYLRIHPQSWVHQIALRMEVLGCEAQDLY

B1: factor VIIIa A2 subunit, D519A and E665A (other)
chain: SVAKKHPKTWVHYIAAEEEDWDYAPLVLAPDDRSYKSQYLNNGPQRIGRKYKKVRFMAYTDETFKTREAIQHESGILGPLLYGEVGDTLLIIFKNQASRPYNIYPHGITDVRPLYSRRLPKGVKHLKDFPILPGEIFKYKWTVTVEAGPTKSDPRCLTRYYSSFVNMERDLASGLIGPLLICYKESVDQRGNQIMSDKRNVILFSVFDENRSWYLTENIQRFLPNPAGVQLEDPEFQASNIMHSINGYVFDSLQLSVCLHEVAYWYILSIGAQTDFLSVFFSGYTFKHKMVYADTLTLFPFSGETVFMSMENPGLWILGCHNSDFRNRGMTALLKVSSCDKNTGDYYEDSYEDISAYLLSKNNAIEPR
B2: factor VIIIa A2 subunit, D696A (other)
chain: SVAKKHPKTWVHYIAAEEEDWDYAPLVLAPDDRSYKSQYLNNGPQRIGRKYKKVRFMAYTDETFKTREAIQHESGILGPLLYGEVGDTLLIIFKNQASRPYNIYPHGITDVRPLYSRRLPKGVKHLKDFPILPGEIFKYKWTVTVEDGPTKSDPRCLTRYYSSFVNMERDLASGLIGPLLICYKESVDQRGNQIMSDKRNVILFSVFDENRSWYLTENIQRFLPNPAGVQLEDPEFQASNIMHSINGYVFDSLQLSVCLHEVAYWYILSIGAQTDFLSVFFSGYTFKHKMVYEDTLTLFPFSGETVFMSMENPGLWILGCHNSAFRNRGMTALLKVSSCDKNTGDYYEDSYEDISAYLLSKNNAIEPR
B3: factor VIIIa A2 subunit, E683A (other)
chain: SVAKKHPKTWVHYIAAEEEDWDYAPLVLAPDDRSYKSQYLNNGPQRIGRKYKKVRFMAYTDETFKTREAIQHESGILGPLLYGEVGDTLLIIFKNQASRPYNIYPHGITDVRPLYSRRLPKGVKHLKDFPILPGEIFKYKWTVTVEDGPTKSDPRCLTRYYSSFVNMERDLASGLIGPLLICYKESVDQRGNQIMSDKRNVILFSVFDENRSWYLTENIQRFLPNPAGVQLEDPEFQASNIMHSINGYVFDSLQLSVCLHEVAYWYILSIGAQTDFLSVFFSGYTFKHKMVYEDTLTLFPFSGETVFMSMANPGLWILGCHNSDFRNRGMTALLKVSSCDKNTGDYYEDSYEDISAYLLSKNNAIEPR
B4: factor VIIIa A2 subunit, E540A (other)
chain: SVAKKHPKTWVHYIAAEEEDWDYAPLVLAPDDRSYKSQYLNNGPQRIGRKYKKVRFMAYTDETFKTREAIQHESGILGPLLYGEVGDTLLIIFKNQASRPYNIYPHGITDVRPLYSRRLPKGVKHLKDFPILPGEIFKYKWTVTVEDGPTKSDPRCLTRYYSSFVNMARDLASGLIGPLLICYKESVDQRGNQIMSDKRNVILFSVFDENRSWYLTENIQRFLPNPAGVQLEDPEFQASNIMHSINGYVFDSLQLSVCLHEVAYWYILSIGAQTDFLSVFFSGYTFKHKMVYEDTLTLFPFSGETVFMSMENPGLWILGCHNSDFRNRGMTALLKVSSCDKNTGDYYEDSYEDISAYLLSKNNAIEPR
B5: factor VIIIa A2 subunit, D666A (other)
chain: SVAKKHPKTWVHYIAAEEEDWDYAPLVLAPDDRSYKSQYLNNGPQRIGRKYKKVRFMAYTDETFKTREAIQHESGILGPLLYGEVGDTLLIIFKNQASRPYNIYPHGITDVRPLYSRRLPKGVKHLKDFPILPGEIFKYKWTVTVEDGPTKSDPRCLTRYYSSFVNMERDLASGLIGPLLICYKESVDQRGNQIMSDKRNVILFSVFDENRSWYLTENIQRFLPNPAGVQLEDPEFQASNIMHSINGYVFDSLQLSVCLHEVAYWYILSIGAQTDFLSVFFSGYTFKHKMVYEATLTLFPFSGETVFMSMENPGLWILGCHNSDFRNRGMTALLKVSSCDKNTGDYYEDSYEDISAYLLSKNNAIEPR
B6: factor VIIIa A2 subunit, N538A (other)
chain: SVAKKHPKTWVHYIAAEEEDWDYAPLVLAPDDRSYKSQYLNNGPQRIGRKYKKVRFMAYTDETFKTREAIQHESGILGPLLYGEVGDTLLIIFKNQASRPYNIYPHGITDVRPLYSRRLPKGVKHLKDFPILPGEIFKYKWTVTVEDGPTKSDPRCLTRYYSSFVAMERDLASGLIGPLLICYKESVDQRGNQIMSDKRNVILFSVFDENRSWYLTENIQRFLPNPAGVQLEDPEFQASNIMHSINGYVFDSLQLSVCLHEVAYWYILSIGAQTDFLSVFFSGYTFKHKMVYEDTLTLFPFSGETVFMSMENPGLWILGCHNSDFRNRGMTALLKVSSCDKNTGDYYEDSYEDISAYLLSKNNAIEPR
B7: factor VIIIa A2 subunit, S654A (other)
chain: SVAKKHPKTWVHYIAAEEEDWDYAPLVLAPDDRSYKSQYLNNGPQRIGRKYKKVRFMAYTDETFKTREAIQHESGILGPLLYGEVGDTLLIIFKNQASRPYNIYPHGITDVRPLYSRRLPKGVKHLKDFPILPGEIFKYKWTVTVEDGPTKSDPRCLTRYYSSFVNMERDLASGLIGPLLICYKESVDQRGNQIMSDKRNVILFSVFDENRSWYLTENIQRFLPNPAGVQLEDPEFQASNIMHSINGYVFDSLQLSVCLHEVAYWYILSIGAQTDFLSVFFAGYTFKHKMVYEDTLTLFPFSGETVFMSMENPGLWILGCHNSDFRNRGMTALLKVSSCDKNTGDYYEDSYEDISAYLLSKNNAIEPR
B8: factor VIIIa A2 subunit, T522A (other)
chain: SVAKKHPKTWVHYIAAEEEDWDYAPLVLAPDDRSYKSQYLNNGPQRIGRKYKKVRFMAYTDETFKTREAIQHESGILGPLLYGEVGDTLLIIFKNQASRPYNIYPHGITDVRPLYSRRLPKGVKHLKDFPILPGEIFKYKWTVTVEDGPAKSDPRCLTRYYSSFVNMERDLASGLIGPLLICYKESVDQRGNQIMSDKRNVILFSVFDENRSWYLTENIQRFLPNPAGVQLEDPEFQASNIMHSINGYVFDSLQLSVCLHEVAYWYILSIGAQTDFLSVFFSGYTFKHKMVYEDTLTLFPFSGETVFMSMENPGLWILGCHNSDFRNRGMTALLKVSSCDKNTGDYYEDSYEDISAYLLSKNNAIEPR
B9: factor VIIIa A2 subunit, Y476F (other)
chain: SVAKKHPKTWVHYIAAEEEDWDYAPLVLAPDDRSYKSQYLNNGPQRIGRKYKKVRFMAYTDETFKTREAIQHESGILGPLLYGEVGDTLLIIFKNQASRPYNIFPHGITDVRPLYSRRLPKGVKHLKDFPILPGEIFKYKWTVTVEDGPTKSDPRCLTRYYSSFVNMERDLASGLIGPLLICYKESVDQRGNQIMSDKRNVILFSVFDENRSWYLTENIQRFLPNPAGVQLEDPEFQASNIMHSINGYVFDSLQLSVCLHEVAYWYILSIGAQTDFLSVFFSGYTFKHKMVYEDTLTLFPFSGETVFMSMENPGLWILGCHNSDFRNRGMTALLKVSSCDKNTGDYYEDSYEDISAYLLSKNNAIEPR
B10: factor VIIIa A2 subunit, S695A (other)
chain: SVAKKHPKTWVHYIAAEEEDWDYAPLVLAPDDRSYKSQYLNNGPQRIGRKYKKVRFMAYTDETFKTREAIQHESGILGPLLYGEVGDTLLIIFKNQASRPYNIYPHGITDVRPLYSRRLPKGVKHLKDFPILPGEIFKYKWTVTVEDGPTKSDPRCLTRYYSSFVNMERDLASGLIGPLLICYKESVDQRGNQIMSDKRNVILFSVFDENRSWYLTENIQRFLPNPAGVQLEDPEFQASNIMHSINGYVFDSLQLSVCLHEVAYWYILSIGAQTDFLSVFFSGYTFKHKMVYEDTLTLFPFSGETVFMSMENPGLWILGCHNADFRNRGMTALLKVSSCDKNTGDYYEDSYEDISAYLLSKNNAIEPR

Target: T1, factor VIIIa A1/A3C1C2 dimer, wild type
Test: cell-based or functional assay

Row | Decay rate relative to wild type, Factor VIIIa (1.5 nM, factor IXa absent) | Decay rate, Factor VIIIa (1.5 nM factor VIIIa, factor IXa absent) [min⁻¹] | Binder
1 | 0.25 relative to wild type | 0.0352 | B1

Target: T1, factor VIIIa A1/A3C1C2 dimer, wild type
Test: cell-based or functional assay
Remark: another data set of the same source

Row | Factor VIIIa decay rate relative to wild type, FIXa (+) | Factor VIIIa decay rate, FIXa (+) [min⁻¹] | Binder
2 | 1.05 relative to wild type | 0.0118 | B2
3 | 2.33 relative to wild type | 0.0263 | B3
4 | 0.81 relative to wild type | 0.0091 | B4
5 | 4.83 relative to wild type | 0.0545 | B5
6 | 1.28 relative to wild type | 0.0144 | B6
7 | 1.28 relative to wild type | 0.0145 | B7
8 | 2.39 relative to wild type | 0.027 | B8
9 | 1.23 relative to wild type | 0.0139 | B9
10 | 0.75 relative to wild type | 0.0085 | B10
